From the Human Domainome abundance scans (Beltran et al. 2025)
± gives the uncertainty stated by the source.

B1: FERM and PDZ domain-containing protein 4, residues 75 to 154; numbered along this chain, Q14CM0 (parent)
chain: APRKVEMRRDPVLGFGFVAGSEKPVVVRSVTPGGPSEGKLIPGDQIVMINDEPVSAAPRERVIDLVRSCKESILLTVIQP

Variants of: B1
Test: abundance fitness (aPCA) (normalised: wild type 0, dead -1); higher = more abundant; growth selection in yeast, the domain comes from the species named
Details: Homo sapiens

Abundance fitness, by site and new letter:
V47: K -0.114 ± 0.042, N -0.175 ± 0.042, G -0.426 ± 0.041, F -0.118 ± 0.042, T -0.01 ± 0.032, Y -0.019 ± 0.04, W -0.128 ± 0.046, H -0.06 ± 0.043, R -0.192 ± 0.033, C -0.032 ± 0.04, L 0.012 ± 0.027, S -0.098 ± 0.03, D -0.084 ± 0.048, E -0.083 ± 0.059, M -0.03 ± 0.049, A -0.112 ± 0.036, Q -0.045 ± 0.04, I 0.018 ± 0.032
A57: L 0.032 ± 0.023, I -0.055 ± 0.035, M 0.009 ± 0.028, G -0.233 ± 0.021, N -0.149 ± 0.038, Q -0.028 ± 0.03, W 0.016 ± 0.024, F 0.016 ± 0.038, D -0.052 ± 0.034, S -0.009 ± 0.024, R -0.12 ± 0.021, P -0.816 ± 0.045, E -0.022 ± 0.028, T 0 ± 0.028, Y 0.038 ± 0.037, C -0.005 ± 0.03, K -0.055 ± 0.032, H -0.083 ± 0.039
S55: T -0.157 ± 0.25, P -0.027 ± 0.19, F -0.143 ± 0.055
G43: L -0.284 ± 0.024, N -0.131 ± 0.041, C -0.252 ± 0.034, Y -0.246 ± 0.044, Q -0.227 ± 0.03, P -0.958 ± 0.051, H -0.204 ± 0.043, T -0.424 ± 0.031, R -0.248 ± 0.021, I -1.03 ± 0.14, F -0.256 ± 0.038, S -0.262 ± 0.025, W -0.402 ± 0.026, V -0.991 ± 0.04, D -0.108 ± 0.035, E -0.18 ± 0.027, M -0.175 ± 0.028
V62: D -0.793 ± 0.053, P -0.841 ± 0.043, F -0.17 ± 0.027, L -0.199 ± 0.022, N -0.738 ± 0.04, A -0.32 ± 0.029, G -0.936 ± 0.046, K -1.03 ± 0.065, E -0.86 ± 0.057, H -0.711 ± 0.039, M -0.383 ± 0.031
R59: C -0.03 ± 0.031, V -0.051 ± 0.022, W -0.025 ± 0.024, T -0.03 ± 0.026, D -0.385 ± 0.036, M -0.039 ± 0.028, A -0.028 ± 0.023, G -0.007 ± 0.02, P -0.025 ± 0.026, H -0.059 ± 0.035, Y 0.025 ± 0.035, F 0.005 ± 0.035, L 0.007 ± 0.022, S -0.06 ± 0.023, N -0.025 ± 0.038, E -0.05 ± 0.027, Q 0.022 ± 0.028
Q45: N -0.126 ± 0.027, H -0.009 ± 0.029, D -0.589 ± 0.041, V -0.123 ± 0.024, I -0.105 ± 0.027, A -0.084 ± 0.026, T -0.105 ± 0.023, E -0.037 ± 0.031, L -0.136 ± 0.021, W -0.2 ± 0.03, F -0.247 ± 0.03, K -0.057 ± 0.028, S -0.102 ± 0.022, R -0.026 ± 0.022, P -0.938 ± 0.051, C -0.101 ± 0.03
N50: Q -0.094 ± 0.028, F -0.145 ± 0.037, G 0 ± 0.02, P -0.919 ± 0.05, S -0.185 ± 0.024, L -0.361 ± 0.023, H -0.11 ± 0.038, D -0.035 ± 0.032, W -0.173 ± 0.025, I -0.607 ± 0.066, C -0.2 ± 0.035, T -0.597 ± 0.034, A -0.143 ± 0.023, K -0.223 ± 0.032, Y -0.162 ± 0.044, V -0.695 ± 0.029, M -0.187 ± 0.028, E -0.054 ± 0.026
I46: L -0.051 ± 0.2, F -0.255 ± 0.21, V -0.014 ± 0.098, M -0.293 ± 0.16, N -0.679 ± 0.31, T -0.113 ± 0.17, S 0.073 ± 0.36, P -0.611 ± 0.37
I41: M 0.03 ± 0.027, G -0.084 ± 0.022, S 0.033 ± 0.024, E 0.015 ± 0.025, N 0.032 ± 0.039, P -0.925 ± 0.055, Y -0.011 ± 0.035, Q -0.003 ± 0.028, W -0.004 ± 0.025, K -0.008 ± 0.028, H 0.028 ± 0.036, L 0.024 ± 0.023, F 0.043 ± 0.036, T 0.013 ± 0.028, V -0.009 ± 0.024
E60: P -0.077 ± 0.029, W -0.112 ± 0.024, D -0.049 ± 0.032, T -0.03 ± 0.026, F -0.183 ± 0.035, M -0.048 ± 0.03, V -0.131 ± 0.022, K -0.015 ± 0.029, N -0.028 ± 0.038, I -0.21 ± 0.04, H -0.038 ± 0.037, S -0.005 ± 0.024, C -0.059 ± 0.028, G -0.025 ± 0.019, L -0.137 ± 0.022, R -0.041 ± 0.02, Y -0.178 ± 0.036
E52: P -0.861 ± 0.058, W -0.065 ± 0.023, D -0.071 ± 0.032, C -0.069 ± 0.03, I -0.053 ± 0.04, L -0.026 ± 0.022, N -0.048 ± 0.039, R -0.053 ± 0.02, F -0.083 ± 0.035, H -0.037 ± 0.038, T -0.037 ± 0.028, K -0.066 ± 0.031, Q -0.012 ± 0.028, Y -0.045 ± 0.036, M -0.038 ± 0.028, S -0.102 ± 0.024, G -0.321 ± 0.02
P42: A -0.036 ± 0.024, H -0.155 ± 0.045, N -0.069 ± 0.043, D -0.064 ± 0.035, Q -0.043 ± 0.029, S -0.093 ± 0.026, L -0.104 ± 0.024, G -0.237 ± 0.022, T -0.058 ± 0.028, K -0.108 ± 0.03, W -0.477 ± 0.03, Y -0.276 ± 0.041, M -0.154 ± 0.031, I -0.082 ± 0.038, E -0.024 ± 0.025, R -0.124 ± 0.021, V -0.048 ± 0.022
R61: W -0.082 ± 0.032, I -0.107 ± 0.033, S -0.029 ± 0.024, M -0.059 ± 0.032, K -0.01 ± 0.032, Q -0.005 ± 0.032, V -0.044 ± 0.026, P -0.505 ± 0.04, N -0.041 ± 0.032, Y -0.019 ± 0.03, D -0.021 ± 0.035, F -0.044 ± 0.034, C -0.065 ± 0.032, T -0.037 ± 0.03, G -0.134 ± 0.029, E -0.071 ± 0.035, A -0.018 ± 0.029, H -0.012 ± 0.031
D44: K -1.01 ± 0.069, A -0.221 ± 0.023, G -0.73 ± 0.026, W -0.817 ± 0.037, R -1.01 ± 0.037, C -0.289 ± 0.033, H -0.306 ± 0.079, N -0.418 ± 0.041, S -0.264 ± 0.024, E -0.173 ± 0.025, Q -0.369 ± 0.033, F -0.957 ± 0.093, Y -0.697 ± 0.052, P -0.937 ± 0.058, M -0.186 ± 0.029
P53: V -0.012 ± 0.028, A -0.037 ± 0.028, Q -0.035 ± 0.034, M -0.015 ± 0.031, K -0.003 ± 0.03, T -0.043 ± 0.026, L 0.004 ± 0.024, C -0.029 ± 0.031, E 0.007 ± 0.036, D 0.034 ± 0.037, S -0.002 ± 0.024, Y -0.078 ± 0.028, G -0.079 ± 0.029, N -0.005 ± 0.03, F -0.124 ± 0.031, I 0.116 ± 0.029, W -0.094 ± 0.032, R -0.038 ± 0.025, H -0.03 ± 0.028
D51: W -0.234 ± 0.026, E -0.016 ± 0.028, K -0.044 ± 0.035, F -0.194 ± 0.044, S -0.039 ± 0.024, M -0.077 ± 0.03, N -0.047 ± 0.035, L -0.168 ± 0.024, Y -0.145 ± 0.044, Q -0.027 ± 0.028, V -0.385 ± 0.025, R -0.069 ± 0.021, H 0.01 ± 0.043, C -0.135 ± 0.034, P -0.821 ± 0.051, A -0.087 ± 0.024, T -0.079 ± 0.028, I -0.511 ± 0.057
V54: F -0.692 ± 0.044, W -1.07 ± 0.11, G -0.993 ± 0.066, Y -0.911 ± 0.058, A -0.271 ± 0.031, L -0.207 ± 0.025, K -1.21 ± 0.11, P -0.994 ± 0.06, S -0.627 ± 0.031, C -0.03 ± 0.034, D -0.928 ± 0.079, Q -0.647 ± 0.044, N -0.945 ± 0.072, T -0.13 ± 0.028, H -0.942 ± 0.066, E -0.771 ± 0.073, I -0.117 ± 0.03
M48: W -0.152 ± 0.032, K -0.046 ± 0.03, H -0.121 ± 0.031, D -0.095 ± 0.039, P -0.917 ± 0.05, A 0.044 ± 0.026, S 0.008 ± 0.022, Y -0.083 ± 0.031, L -0.072 ± 0.022, G -0.025 ± 0.026, N -0.095 ± 0.032, I -0.154 ± 0.03, T -0.015 ± 0.025, E -0.028 ± 0.037, R -0.046 ± 0.023, V -0.127 ± 0.027, C -0.003 ± 0.028, F -0.01 ± 0.027
I49: R -0.868 ± 0.031, F -0.476 ± 0.042, N -0.847 ± 0.083, E -0.894 ± 0.048, M -0.529 ± 0.034, L -0.111 ± 0.023, H -0.676 ± 0.069, T -0.708 ± 0.042, A -0.581 ± 0.03, Y -0.855 ± 0.076, G -0.887 ± 0.034, D -0.846 ± 0.07, S -0.929 ± 0.042, W -0.779 ± 0.036, V 0.006 ± 0.023, C -0.267 ± 0.031, Q -0.941 ± 0.059, P -0.928 ± 0.056
P58: K -0.027 ± 0.032, F -0.33 ± 0.039, V -0.167 ± 0.023, L -0.24 ± 0.024, C -0.043 ± 0.029, T -0.029 ± 0.027, M -0.217 ± 0.03, E -0.06 ± 0.026, G -0.014 ± 0.02, N -0.04 ± 0.037, Y -0.25 ± 0.043, Q -0.091 ± 0.029, D -0.061 ± 0.032, I -0.29 ± 0.04, A -0.067 ± 0.023, H -0.09 ± 0.035, S 0.017 ± 0.025, R -0.063 ± 0.02, W -0.474 ± 0.029
